From paper PMC9834221, “TLR3 forms a laterally aligned multimeric complex along double-stranded RNA for efficient signal transduction”

B1: mouse Toll-like receptor 3 (TLR3) extracellular domain (ECD), wild type [mouse] / itself (parent)
chain: TNQCTVRYNVADCSHLKLTHIPDDLPSNITVLNLTHNQLRRLPPTNFTRYSQLAILDAGFNSISKLEPELCQILPLLKVLNLQHNELSQISDQTFVFCTNLTELDLMSNSIHKIKSNPFKNQKNLIKLDLSHNGLSSTKLGTGVQLENLQELLLAKNKILALRSEELEFLGNSSLRKLDLSSNPLKEFSPGCFQTIGKLFALLLNNAQLNPHLTEKLCWELSNTSIQNLSLANNQLLATSESTFSGLKWTNLTQLDLSYNNLHDVGNGSFSYLPSLRYLSLEYNNIQRLSPRSFYGLSNLRYLSLKRAFTKQSVSLASHPNIDDFSFQWLKYLEYLNMDDNNIPSTKSNTFTGLVSLKYLSLSKTFTSLQTLTNETFVSLAHSPLLTLNLTKNHISKIANGTFSWLGQLRILDLGLNEIEQKLSGQEWRGLRNIFEIYLSYNKYLQLSTSSFALVPSLQRLMLRRVALKNVDISPSPFRPLRNLTILDLSNNNIANINEDLLEGLENLEILDFQHNNLARLWKRANPGGPVNFLKGLSHLHILNLESNGLDEIPVGVFKNLFELKSINLGLNNLNKLEPFIFDDQTSLRSLNLQKNLITSVEKDVFGPPFQNLNSLDMRFNPFDCTCESISWFVNWINQTHTNISELSTHYLCNTPHHYYGFPLKLFDTSSCKDSAPFEL

Variants of: B1
Test: cryo-EM 2D classification (fraction of tetrameric TLR3 particles on 90 bp dsRNA)
Conditions: with itself; TLR3 0.2 mg/mL (~2.4 µM) with 3.6 molar amount of 90 bp dsRNA (0.5 mg/mL, ~8.6 µM); 25 mM MES-NaOH pH 5.3 and 0.2 M NaCl; on ice for 2–3 h; parent: 11; read off a plot

screen value [%]	Variant
3.6	chain 1 E499K D500K
12	chain 1 N498K E499K E503K

Continued, variant first:

Variant	screen value [%]
chain 1 Q93E V96E K113E K115E N117E K120E N121E	1.6
chain 1 E499K D500K E503K	2.7
chain 1 S91E Q93E K113E K115E N117E K120E N121E	0.75
